Data: patent US20230220008A1

Biological target: CD137 on Jurkat reporter cells (Promega) (UniProt Q07011)
Test: cell-based or functional assay

Sequence of CD137 on Jurkat reporter cells (Promega) (Q07011 24-255 limits assumed): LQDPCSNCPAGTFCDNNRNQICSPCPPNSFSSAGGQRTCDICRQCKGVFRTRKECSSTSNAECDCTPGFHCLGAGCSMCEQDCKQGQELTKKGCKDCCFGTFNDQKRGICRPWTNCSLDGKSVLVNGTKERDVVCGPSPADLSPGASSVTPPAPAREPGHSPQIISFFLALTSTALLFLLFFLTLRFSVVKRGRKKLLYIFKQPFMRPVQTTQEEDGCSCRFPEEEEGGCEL

Substance “CD137 ligand (from UniProt P41273 71-254)” has an Average EC50 of 14.2 nM and an Average fold induction of 4 fold.
